Columns and labels:
Type in all cases: biochemical
[1] = Reaction of UPO enzyme with oleic acid and H2O2, products analysed by GC-MS; details: for Conversion of the substrate (oleic acid) into products / selectivity towards only epoxidation (ratio between only epoxides and other oxygenation products) / share of products that are only epoxides / share of products that are other (hydroxylated) epoxides / epoxidation activity / epoxidized species detected (words): enzyme 0.2 μM, oleic acid 100 μM, H2O2 2,500 μM; for Conversion of the substrate (oleic acid) into products: 30° C., 50 mM phosphate pH 5.5, 30 min, 20% acetone; for selectivity towards only epoxidation (ratio between only epoxides and other oxygenation products) / share of products that are only epoxides / share of products that are other (hydroxylated) epoxides / epoxidation activity / epoxidized species detected (words): pH 5.5, 30° C., 30 min
Method: The rMroUPO (0.2 μM) was incubated with oleic acid (100 μM) and H2O2 (2,500 μM) at 30° C. in 50 mM phosphate, pH 5.5, for 30 min. Oleic acid had been previously dissolved in acetone so that the final acetone concentration attained 20% (v/v) in the embodiment. After the incubation time, the products were recovered by liquid-liquid extraction with t-butyl-methyl-ether. The organic solvent was removed under N2 current. N,O-Bis-(trimethylsilyl)trifluoroacetamide was employed to prepare the trimethylsilyl derivatives of the compounds to be separated by gas chromatography and identified by mass spectrometry.
(§1) Chromatographic analyses were carried out in a gas chromatograph coupled to a mass-spectrometry detector. The column used was a fused-silica DB-5HT capillary column (30 m×0.25 mm internal diameter×0.1 μm film thickness). Oven was heated from 120° C. (1 min) to 300° C. (5 min) at 5° C.·min. Injection was performed at 300° C. and transfer line was maintained at 300° C. Compounds were identified by comparison of their mass spectra with those of authentic standards and those from the NIST and Wiley libraries as well as by mass fragmentography. Quantification of the products was carried out by integrating the total ion peak areas, using external standard curves of the same or closely related compounds.
Reactions with oleic acid and identification and quantification of the products were conducted as explained in Example 3.
The rMroUPO I153F/S156F mutated variant (SEQ ID NO: 3), in which isoleucine 153 and serine 156 were both replaced by phenylalanine residues, was constructed by site-directed mutagenesis, in a PCR reaction in which the following oligos—complementary to the region of the gene to be mutated, but bearing the desired mismatches—were used as primers: 5′-[…]-3′ (SEQ ID NO: 8), along with its reverse complementary counterpart. PCR reaction and sequencing of the mutated variant were carried out as described in Example 4. Expression, purification of the enzyme, reactions with oleic acid and GC-MS identification and quantification of the products were conducted as in Example 3.

[2] = Reaction of UPO enzyme with α-linolenic acid and H2O2, products analysed by GC-MS; details: for Conversion of α-linolenic acid: 30° C., 50 mM phosphate pH 5.5, 30 min
Method: as §1
Reactions were performed in an embodiment consisting of rMroUPO (0.2 μM), incubated with α-linolenic acid (100 μM) and H2O2 (1,250 μM) at 30° C., in 50 mM phosphate, pH 5.5, for 30 min. Extraction and separation of the reaction products was carried out as described in Example 3. Since no available commercial standards of epoxidized α-linolenic acid were available, they were chemically synthesised as follows: a solution of peracetic acid (1.8 mmol, 3.6 equiv) and NaOAc (0.7 mmol; 1.4 equiv) was added to α-linolenic acid (0.5 mmol) using a syringe pump at 0° C. for 1 h. The mixture was stirred at 0° C. for an additional h. Products were recovered by liquid-liquid extraction with t-butyl-methyl-ether, resulting in a mixture of mono- and di-epoxides. Identification of the compounds was made by comparison of the mass spectra with those of the synthesised standards and by mass fragmentography. Quantification was carried out as detailed in Example 3.
Reactions and analyses of the products were performed as in Example 8. FIG. 7 illustrates a chromatogram of the reaction products, among which single epoxides, di-epoxides and other epoxidized derivatives. Conversion of the substrate attained 97%, of which 92% (of which 88% are di-epoxides) represented only epoxides and a mere 8% other epoxide derivatives. Therefore, the selectivity towards only epoxidation reached 11.50.

[3] = Reaction of UPO enzyme with linoleic acid and H2O2, products analysed by GC-MS; details: for Conversion of linoleic acid / selectivity towards only epoxidation (ratio between only epoxides and other oxygenation products) / share of products that are hydroxylated epoxides / share of products that are only epoxides: enzyme 0.6 μM, linoleic acid 100 μM, H2O2 1,250 μM; for Conversion of linoleic acid: 30° C., 50 mM phosphate pH 5.5, 30 min, 20% acetone; for selectivity towards only epoxidation (ratio between only epoxides and other oxygenation products) / share of products that are hydroxylated epoxides / share of products that are only epoxides: pH 5.5, 30° C., 30 min
Method: as §1
An embodiment was designed in which rMroUPO (0.6 μM) was incubated with linoleic acid (100 μM, previously dissolved in acetone so that the final acetone concentration in the embodiment was of 20%) and H2O2 (1,250 μM) at 30° C. in 50 mM phosphate, pH 5.5, for 30 min. Identification and quantification of the products was conducted as detailed in Example 3.
Reactions were performed as in Example 6. Identification and quantification of the products is described in Example 3.

[4] = enzyme 0.2 μM, α-linolenic acid 100 μM, H2O2 1,250 μM
[5] = α-linolenic acid 100 μM, enzyme 0.2 μM, H2O2 1,250 μM, pH 5.5, 30° C., 30 min

B1: rMroUPO: recombinant Marasmius rotula unspecific peroxygenase, SEQ ID NO: 1, encoded by SEQ ID NO: 9, expressed in E. coli (protein)
chain: SAHPWKAPGPNDSRGPCPGLNTLANHGFLPRNGRNISVPMIVKAGFEGYNVQSDILILAGKIGMLTSREADTISLEDLKLHGTIEHDASLSREDVAIGDNLHFNEAIFTTLANSNPGADVYNISSAAQVQHDRLADSLARNPNVTNTDLTATIRSSESAFFLTVMSAGDPLRGEAPKKFVNVFFREERMPIKEGWKRSTTPITIPLLGPIIERITELSDWKPTGDNCGAIVLSPEL
modifications: Recombinant Marasmius rotula unspecific peroxygenase enzyme, rMroUPO
- Conversion of the substrate (oleic acid) into products [1]: 94%
- selectivity towards only epoxidation (ratio between only epoxides and other oxygenation products) [1]: 0.67
- share of products that are only epoxides [1]: 40%
- share of products that are other (hydroxylated) epoxides [1]: 57%
- Conversion of α-linolenic acid [2, 4]: 98%
- selectivity towards only epoxidation (ratio between only epoxides and other oxygenation products) [2, 5]: 0.79
- share of products that are only epoxides [2, 5]: 44%
- share of products that are other epoxides / other epoxide derivatives [2, 5]: 56%
- Conversion of linoleic acid [3]: 98%
- selectivity towards only epoxidation (ratio between only epoxides and other oxygenation products) [3]: 0.27
- share of products that are hydroxylated epoxides [3]: 79%
- share of products that are only epoxides [3]: 21%

B2: rMroUPO I153F/S156F mutated variant: rMroUPO in which isoleucine 153 and serine 156 were both replaced by phenylalanine (SEQ ID NO: 3) (protein)
chain: SAHPWKAPGPNDSRGPCPGLNTLANHGFLPRNGRNISVPMIVKAGFEGYNVQSDILILAGKIGMLTSREADTISLEDLKLHGTIEHDASLSREDVAIGDNLHFNEAIFTTLANSNPGADVYNISSAAQVQHDRLADSLARNPNVTNTDLTATFRSFESAFFLTVMSAGDPLRGEAPKKFVNVFFREERMPIKEGWKRSTTPITIPLLGPIIERITELSDWKPTGDNCGAIVLSPEL
modifications: Variant of the invention which comprises the SEQ ID NO 1 and the amino acid substitutions I153F and S156F
- epoxidation activity / epoxidized species detected (words) ([1]; listed as I153F/S156F mutated variant): completely abolishes the epoxidation activity
- epoxidation activity / epoxidized species detected (words) ([1]; listed as I153F/S156F variant): completely abolished the MroUPO ability to epoxidize oleic acid
- epoxidation activity / epoxidized species detected (words) ([1]; listed as MroUPO I153F/S156F mutated variant): No traces of epoxidized species were detected
- selectivity towards hydroxylation ([1]; oleic acid, products restricted to ω-1 and ω hydroxylated, keto and carboxylic species): total towards hydroxylation

B3: rMroUPO I153T mutated variant: rMroUPO in which isoleucine 153 was replaced by threonine (SEQ ID NO: 2) (protein)
chain: SAHPWKAPGPNDSRGPCPGLNTLANHGFLPRNGRNISVPMIVKAGFEGYNVQSDILILAGKIGMLTSREADTISLEDLKLHGTIEHDASLSREDVAIGDNLHFNEAIFTTLANSNPGADVYNISSAAQVQHDRLADSLARNPNVTNTDLTATTRSSESAFFLTVMSAGDPLRGEAPKKFVNVFFREERMPIKEGWKRSTTPITIPLLGPIIERITELSDWKPTGDNCGAIVLSPEL
modifications: Variant of the invention which comprises the SEQ ID NO 1 and the amino acid substitution I153T
- Conversion of the substrate (oleic acid) into products [1]: 85%
- increase of epoxidation selectivity relative to rMroUPO ([1]; oleic acid): 4 fold
- ratio between stearic acid epoxide and its additionally hydroxylated derivatives (words, vs MroUPO) ([1]; oleic acid): increased
- selectivity towards only epoxidation (ratio between only epoxides and other oxygenation products) [1]: 2.67
- share of products that are only epoxides [1]: 72%
- share of products that are other (hydroxylated) epoxides [1]: 17%
- Conversion of α-linolenic acid [2, 4]: 97%
- increase of epoxidation selectivity relative to rMroUPO ([2]; α-linolenic acid): 14.6 fold
- selectivity towards only epoxidation (ratio between only epoxides and other oxygenation products) [2, 5]: 11.50
- share of di-epoxides among only epoxides [2, 5]: 88%
- share of products that are only epoxides [2, 5]: 92%
- share of products that are other epoxides / other epoxide derivatives [2, 5]: 8%
- Conversion of linoleic acid [3]: 93%
- increase of epoxidation selectivity relative to rMroUPO ([3]; linoleic acid): 2.7 fold
- selectivity towards only epoxidation (ratio between only epoxides and other oxygenation products) [3]: 0.72
- share of products that are hydroxylated epoxides [3]: 58%
- share of products that are only epoxides [3]: 42%

— patent US12351833B2, “Unspecific peroxygenase enzyme variants for selective fatty acid epoxidation or hydroxylation” (CONSEJO SUPERIOR DE INVESTIGACIONES CIENTÍFICAS (CSIC), priority 2019, dated 2025)
